Source: IntAct's records for PubMed 18583988

Biological target: csk21_human CSNK2A1 (UniProt P68400)
UniProt P68400, sequence (P68400 whole entry, looked up): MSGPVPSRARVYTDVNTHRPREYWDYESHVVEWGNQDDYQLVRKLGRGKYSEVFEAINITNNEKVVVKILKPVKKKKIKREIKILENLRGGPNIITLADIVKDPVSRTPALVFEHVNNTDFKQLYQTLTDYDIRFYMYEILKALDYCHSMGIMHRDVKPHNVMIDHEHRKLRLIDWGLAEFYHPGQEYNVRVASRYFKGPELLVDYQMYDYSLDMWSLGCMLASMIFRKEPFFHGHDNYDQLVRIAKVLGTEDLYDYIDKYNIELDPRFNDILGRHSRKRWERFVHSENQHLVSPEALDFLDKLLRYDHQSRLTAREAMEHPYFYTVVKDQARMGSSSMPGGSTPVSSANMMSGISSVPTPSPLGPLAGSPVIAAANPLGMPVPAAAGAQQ

effect of a mutation on the interaction | Substance
disrupting interaction | Mediator of DNA damage checkpoint protein 1 (Homo sapiens), Q14676 T301A
disrupting interaction | Mediator of DNA damage checkpoint protein 1 (Homo sapiens), Q14676 T331A
